From patent publication US5702897

Each substance was assayed against LexA/Bax fusion protein (murine) (UniProt P0A7C2).
A colony formation of yeast cotransformed with LexA/Bax, galactose medium (neutralization of Bax activity) of 19 was found for B42/Bcl-2(1-81) hybrid in this work.
A colony formation of yeast cotransformed with LexA/Bax, galactose medium (neutralization of Bax activity) of 280 was found for B42/Bcl-2(1-218) hybrid in this work.
A colony formation of yeast cotransformed with LexA/Bax, galactose medium (neutralization of Bax activity) of 16 was found for B42/Bcl-2(83-218) hybrid in this work.
A colony formation of yeast cotransformed with LexA/Bax, galactose medium (neutralization of Bax activity) of 300 was found for B42/Bcl-X-L hybrid in this work.
A colony formation of yeast cotransformed with LexA/Bax, galactose medium (neutralization of Bax activity) of 10 was found for B42/Bcl-X-S hybrid in this work.
A colony formation of yeast cotransformed with LexA/Bax, galactose medium (neutralization of Bax activity) of 8 was found for B42/Lamin in this work.
A colony formation of yeast cotransformed with LexA/Bax, galactose medium (neutralization of Bax activity) of 290 was found for B42/Mcl-1 hybrid in this work.
